The values below come from IntAct's records for PubMed 11134024.

First the molecules themselves.
B1: Numb-related protein 1 (Caenorhabditis elegans), Q9XTY6-1 (parent)
chain: MSASQGNVFTRGLSRISRRKKKTKSIQNSLVSEQQPSFDAAIVPMPIPNDKSSIFSKGMDRLRRSLRLPKKRRDRSHDRHLSPDVTGGSKTEQWQPDEGAVRTGTCCFNVKYLGSVEVYESRGMQVCEGALKSLKASRRKPVKAVLYVSGDGLRVVDQGNSRGLLVDQTIEKVSFCAPDRQTDKGFAYICRDGASRRWMCHGFLATKETGERLSHAVGCAFSICLEKKKRRDEETAQVNVQSAQESTSSTPPKDIFHPNWEDNTSEGTSTQNPSNSRSNLAYQSFRKHVSIEDRYLDPQSVIINEVPASNHMDEIRRISKPRPTGNPALFLRQGSLRAPPDMPSSSDQFKRNMSLRTVSNNPTERSPEKKSFGTQLYNEPIYEGDEDPLGLGITPPVVTKTSGSLSNNGLDGINLNWKSIPAPVHQMQQHNANGDFVAAWPQNTIEKPTVGPLDKLQKQFEDIKLISISSGENTPTTRSKADEWLDDVLRVSMSMSPTSPSSDPPSTSSYSVLPKSGPPPAHAPPPLPVRQAVSNGSPSIYQQQLQQANSTRNSPAGINWNSSPNPMKISQPPAKPVDPFDVQWSRLAVNNTH
partner: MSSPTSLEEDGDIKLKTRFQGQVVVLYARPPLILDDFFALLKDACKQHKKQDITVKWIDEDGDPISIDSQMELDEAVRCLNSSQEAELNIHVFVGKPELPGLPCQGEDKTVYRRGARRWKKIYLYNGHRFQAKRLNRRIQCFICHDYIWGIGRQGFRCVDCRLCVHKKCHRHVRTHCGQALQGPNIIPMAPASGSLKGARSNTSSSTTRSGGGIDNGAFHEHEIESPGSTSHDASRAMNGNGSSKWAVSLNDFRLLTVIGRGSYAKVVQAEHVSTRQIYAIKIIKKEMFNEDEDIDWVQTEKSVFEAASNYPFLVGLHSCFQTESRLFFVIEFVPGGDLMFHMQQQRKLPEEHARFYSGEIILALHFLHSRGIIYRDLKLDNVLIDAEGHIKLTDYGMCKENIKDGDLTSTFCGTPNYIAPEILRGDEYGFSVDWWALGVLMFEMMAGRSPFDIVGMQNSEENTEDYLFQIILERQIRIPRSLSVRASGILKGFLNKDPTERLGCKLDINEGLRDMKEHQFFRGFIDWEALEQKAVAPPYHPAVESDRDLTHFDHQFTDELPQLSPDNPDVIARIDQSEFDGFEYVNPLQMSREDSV

Variants of B1 are the subject of one test. The conditions noted are these: with kpc3_caeel pkc-3, Q19266.
Consider MSASQGNVFTRGLSRISRRKKKTKSIQNSLVSEQQPSFDAAIVPMPIPNDKSSIFSKGMDRLRRSLRLPKKRRDRSHDRHLSPDVTGGSKTEQWQPDEGAVRTGTCCFNVKYLGSVEVYESRGMQVCEGALKSLKASRRKPVKAVLYVSGDGLRVVDQGNSRGLLVDQTIEKVSLCAPDRQTDKGFAYICRDGASRRWMCHGFLATKETGERLSHAVGCAFSICLEKKKRRDEETAQVNVQSAQESTSSTPPKDIFHPNWEDNTSEGTSTQNPSNSRSNLAYQSFRKHVSIEDRYLDPQSVIINEVPASNHMDEIRRISKPRPTGNPALFLRQGSLRAPPDMPSSSDQFKRNMSLRTVSNNPTERSPEKKSFGTQLYNEPIYEGDEDPLGLGITPPVVTKTSGSLSNNGLDGINLNWKSIPAPVHQMQQHNANGDFVAAWPQNTIEKPTVGPLDKLQKQFEDIKLISISSGENTPTTRSKADEWLDDVLRVSMSMSPTSPSSDPPSTSSYSVLPKSGPPPAHAPPPLPVRQAVSNGSPSIYQQQLQQANSTRNSPAGINWNSSPNPMKISQPPAKPVDPFDVQWSRLAVNNTH [F175L], for which the “effect of a mutation on the interaction” value is reported as “decreasing interaction”.

As for MSASQGNVFTRGLSRISRRKKKTKSIQNSLVSEQQPSFDAAIVPMPIPNDKSSIFSKGMDRLRRSLRLPKKRRDRSHDRHLSPDVTGGSKTEQWQPDEGAVRTGTCCFNVKYLGSVEVYESRGMQVCEGALKSLKASRRKPVKAVLYVSGDGLRVVDQGNSRGLLVDQTIEKVSFCAPDRQTDKGFAYICRDGASRRWMCHGFLATKETGERLSHAVGCALSICLEKKKRRDEETAQVNVQSAQESTSSTPPKDIFHPNWEDNTSEGTSTQNPSNSRSNLAYQSFRKHVSIEDRYLDPQSVIINEVPASNHMDEIRRISKPRPTGNPALFLRQGSLRAPPDMPSSSDQFKRNMSLRTVSNNPTERSPEKKSFGTQLYNEPIYEGDEDPLGLGITPPVVTKTSGSLSNNGLDGINLNWKSIPAPVHQMQQHNANGDFVAAWPQNTIEKPTVGPLDKLQKQFEDIKLISISSGENTPTTRSKADEWLDDVLRVSMSMSPTSPSSDPPSTSSYSVLPKSGPPPAHAPPPLPVRQAVSNGSPSIYQQQLQQANSTRNSPAGINWNSSPNPMKISQPPAKPVDPFDVQWSRLAVNNTH [F221L], the “effect of a mutation on the interaction” value is recorded as “decreasing interaction”.

A further test covers variants of B1. The note with it: with kpc3_caeel pkc-3, Q19266. This is another data set of the same source.
Regarding MSASQGNVFTRGLSRISRRKKKTKSIQNSLVSEQQPSFDAAIVPMPIPNDKSSIFSKGMDRLRRSLRLPKKRRDRSHDRHLSPDVTGGSKTEQWQPDEGAVRTGTCCFNVKYLGSVEVYESRGMQVCEGALKSLKASRRKPVKAVLYVSGDGLRVVDQGNSRGLLVDQTIEKVSFCAPDRQTDKGFAYICRDGASRRWMCHGFLATKETGERLSHAVGCALSICLEKKKRRDEETAQVNVQSAQESTSSTPPKDIFHPNWEDNTSEGTSTQNPSNSRSNLAYQSFRKHVSIEDRYLDPQSVIINEVPASNHMDEIRRISKPRPTGNPALFLRQGSLRAPPDMPSSSDQFKRNMSLRTVSNNPTERSPEKKSFGTQLYNEPIYEGDEDPLGLGITPPVVTKTSGSLSNNGLDGINLNWKSIPAPVHQMQQHNANGDFVAAWPQNTIEKPTVGPLDKLQKQFEDIKLISISSGENTPTTRSKADEWLDDVLRVSMSMSPTSPSSDPPSTSSYSVLPKSGPPPAHAPPPLPVRQAVSNGSPSIYQQQLQQANSTRNSPAGINWNSSPNPMKISQPPAKPVDPFDVQWSRLAVNNTH [F221L], the “effect of a mutation on the interaction” value was “decreasing interaction”.
